Laboratory results as given in PMC9295118, “Tungsten Enzyme Using Hydrogen as an Electron Donor to Reduce Carboxylic Acids and NAD^+” (ACS Catalysis, 2022).

Legend:
BaDH = target: T1, BaDH (Aromatoleum aromaticum, UniProt Q5P459); experiment: coupled assay with AORAa, NADPH at […] nm and HPLC of benzyl alcohol; format: biochemical; details: 100 mM citric buffer pH 5.5, 30 °C, benzaldehyde formed in situ by AORAa
T1 construct: gene adh; recombinant, expressed in E. coli BL21(DE3), purified; details in supplement
T1 sequence (Q5P459 1-362): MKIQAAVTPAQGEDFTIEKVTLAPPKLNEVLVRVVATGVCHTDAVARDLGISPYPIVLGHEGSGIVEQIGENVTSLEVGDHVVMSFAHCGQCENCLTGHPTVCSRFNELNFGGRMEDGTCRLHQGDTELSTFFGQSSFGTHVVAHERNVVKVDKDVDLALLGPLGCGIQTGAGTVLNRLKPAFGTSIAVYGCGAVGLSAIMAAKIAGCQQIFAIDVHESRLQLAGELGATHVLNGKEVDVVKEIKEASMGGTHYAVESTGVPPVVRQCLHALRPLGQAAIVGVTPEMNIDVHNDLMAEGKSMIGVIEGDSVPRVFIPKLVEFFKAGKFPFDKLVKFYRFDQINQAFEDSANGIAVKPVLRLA

purified protein [1] = substrate: O=C(O)c1ccccc1; experiment: purified protein; format: biochemical, Aromatoleum aromaticum; details: 2.5% H2 as electron donor, 0.6 mM NADPH, 100 mM citric buffer pH 5.5, 30 °C, W-cofactor beta-subunit site
purified protein [2] = substrate: NC(=O)c1ccc[n+]([C@@H]2O[C@H](COP(=O)(O)OP(=O)(O)OC[C@H]3O[C@@H](n4cnc5c(N)ncnc54)[C@H](O)[C@@H]3O)[C@@H](O)[C@H]2O)c1; experiment: purified protein; format: biochemical, Aromatoleum aromaticum; details: 2.5% H2 as electron donor, 100 mM Tris/HCl pH 8.0, 30 °C, anaerobic, FAD gamma-subunit site expected
[3] = substrate: O=Cc1ccccc1; experiment: steady-state kinetics, initial rates of benzaldehyde oxidation with NAD+; format: biochemical, Aromatoleum aromaticum; details: 1 mM NAD+, Tris/HCl pH 8.0, 30 °C, aerobic, W-cofactor beta-subunit site
Excerpt: steady-state kinetics, initial rates of benzaldehyde oxidation with NAD+ on AORAa

Row | Molecule | coupled assay with AORAa, NADPH at 365 nm and HPLC of benzyl alcohol (BaDH) | Km (purified protein [1]) | kcat (purified protein [1]) | Km (purified protein [2]) | Vmax (purified protein [2]) | kcat (purified protein [2]) | kcat/Km (purified protein [2]) | Km [3] | Vmax [3] | kcat [3] | kcat/Km [3]
1 | NC(=O)C1=CN([C@@H]2O[C@H](COP(=O)(O)OP(=O)(O)OC[C@H]3O[C@@H](n4cnc5c(N)ncnc54)[C@H](OP(=O)(O)O)[C@@H]3O)[C@@H](O)[C@H]2O)C=CC1 [NADPH] | confirming that NADPH was only turned over by BaDH, not by AORAa | – | – | – | – | – | – | – | – | – | –
2 | O=Cc1ccccc1 [benzaldehyde] | it also catalyzed the reduction of benzaldehyde with either NADH or NADPH | – | – | – | – | – | – | – | – | – | –
3 | AORAa (Aromatoleum aromaticum EbN1) (protein, full-length AorABC, N-terminal Twin-Strep-tag on AorA, co-expressed with AorDE in Aromatoleum evansii; (alpha-beta)2-gamma complex, 218 kDa; with Aldehyde oxidoreductase polyferredoxin (iron-sulfur) subunit alpha) chain 1: MGWNRKVLRVNLAEGTCTPEPLNMQWADEYLGSRGLATKYLVSETDPKVDPLSPDNKMIMATGPLTGTMASTGGRYTVVTKGPLTGAIACSNSGGFFGAEMKFAGWDMVIFEGRSPTPVYLFIENERAELRDASYLWGRSCWETEESIRAQHQDPLIRVSSIGRAGENQVMFACIVNDLHRAAGRSGVGAVMGSKNLKAVAIRGTKGVSGIRDFPGFVRATSEAKKVLAGNPVTSEGLPKFGTQVLMNVINEMGALPTRNHRDVQFEDASKISAEAMHEKRPSDGKPQLVTNAACFGCTIACGRISAIDKTHFTVKNNPKYWGASGGLEYEAAWALGAANGVGDLEALQYANLLCNEQGMDPISFGATVGAAMELYETGVLTKERIGLDAPFGSADALAKLAEMTATGEGFGKEIGLGSKRLCEKYGHPELSMSVKGQEFPAYDSRGIQGMGLAYATSNRGACHLRGYTVASEVLGVPVKTDPHVIEGKAELVKAFQDATAVFDSAGICVFTSFAWTLADVQPQIAAACDGDWSMDKLATVGERIWNMERQFNNAAGLGAQDDNLPPRLTSEPAKSGPAKGMVNRLAEMLPEYYGVRGWTPEGTPTPETLSRLGLS chain 2: MKHVILGNGPAGVIAAETLRRAAPTDDILLFGSEDAPPYSRMAIPYLLEGNIDESGTWLRKSPGHFDRLRIHEMRGRAVSLDSERRRILFDDGHFESWDRLLIATGSHPVRPPIPGIDLPEVQTCWTLEDARAIARFATPGARVLQLGAGFIGCIIMEALAARGVELTVVEMGDRMVPRMMTPTAGGMIRKWVEDQGVRVVTNAGVSRIDCRASNDAPLDVTLSTGEVVVADLVIVAAGVAPNIAFLEATPVHVAKGVLVDDRLQTSVPGIFAAGDVAEAPDLFTGAHLVAAIQPNAADQARVAALNMAGHEARLKGVLAINVLDTLGLISSSFGQWWGEERERGGAGVEHVDEAAYRYLSLQFKDDVLIGATSIGLTEHVGALRGLIHGRVRLGEWKERLLHSPLQFVDAYIARSQQPMALVR | – | 33700 µM | 1.4 s⁻¹ | 21.7 ± 2.7 µM | 3.7 µmol/min/mg | 13.4 s⁻¹ | 600000 M⁻¹ s⁻¹ | 39.3 ± 6.6 µM | 33.8 µmol/min/mg | 123 s⁻¹ | 3.1e+06 M⁻¹ s⁻¹
